Biological target: the molecule itself
Assay: negative stain electron microscopy

B1: zebrafish Impdh1a (544) (enzyme)
chain: not shown
B1: binds.
